These results are taken from a protein production outcome set (Wang et al. 2014).
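Note: failed if final PepcDB status was selected cloned or expressed and not failed if soluble or beyond.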

The data set can be described thus: label from the status in PepcDB records.
As for “MTLLVGLGNPTLRYAHTRHNAGFDILDSLVSELDLSFTFSPKHNAFLCVYKDFIFLKPQTYMNLSGESVLSAKNFYKTKELLIVHDDLDLPLGVVRFKNGGGNGGHNGLKSIDLLCSNSYYRLRVGISKGIGVIEHVLSKFHKNEEPLKNAAFEHAKNALKFFIESHDFNAMQNRFTLKKPLKIES”, the protein production entry is reported as “failed”.
With “MSSPVVEIQIWSDLICPWCWIGKRRLERALRNSSLFADIKVRHRAFRLMPELIPLPVIDVLQQRYGGSAEQIVAIQQRIEKIAAEESLIYRLVGTQGADTLQAHRLLYLAHRQGLQEVLLERFYSAYFSEGTPIFDTDTLAPLALDVGLERTAVAALFAGQDFIAEIEDDQRRLQRYGANGVPFFLMDGRIAVNGAQPIEAFSDALAQLNADAASQSAFFLR”, the protein production result was “failed”.
As for “MSDELSDRVAQYLRWQVSDKVALLAQRYPDDTSLTLDWTDLARWDPTLAEDILDAPDSMLEYVERGIRDTPLPVDTSLGQATPRFENLPESHTTAPGEFSPSDRRGQLLALEGQVAKRTQVQPRLVEAAFECQRCGTLTRIPFEPGQFIEPFECVGCETKGPFRINPDQSRYEDYQKLLLENPSSAALGGDTSDIIAHLQGDLAGHGAIANCQDVVLVGELQFRGGGPIPEPQVVVNSVQAAGQTYQDAEFTADQRDLFERLRERPESFDVDIEDPSTADVLMAAAAPKFVSGSHPRDRQVVRGLVLQLVSASTFDGPDGSHYRGDVHVLLPGDPGTGKSVLAKWAAAVAPRSAFASGERVSGPGLTAAAVKDDFSDGGFSIEPGVLVRAHEGIAVVDELDKAGDDAIEKMHSALADQILPLSLGGQSMTLPAECGLLGVCNPLGGHFAGDESLVDALGINSPLLSRFDLIMQMRSKQDREHVRELAESMIRTWSASLKDATGQALDTADADTIDPVLSMDQYRAVLLRARQLHPTPANDRVIEALAAWFEEQKMALPERYRDALADADGQYHGPPVPVTARKLGAARRVAQAAARANLREEITMADVEVAKELVSRSLADLDIPIVHNAGLGGGDVNRREPADLSGVS”, the entry is “failed”; as for “KKFEQVIYRGITEGKSSNEIREELVHQAGMSSDKAAFIARDQTGTILGQMNSERQKRAGFQAFRWSDSGDERVRDSHRERNGKIYFYADNPLLPGEEYNCRCVAE”, “failed”.
As for “MNKTLIINAHPKVDDTSSVSIKVFKHFLESYKELISNNETIEQINLYDDVVPMIDKTVLSAWEKQGNGQELTREEQKVTERMSEILQQFKSANTYVIVLPLHNFNIPSKLKDYMDNIMIARETFKYTETGSVGLLKDGRRMLVIQASGGIYTNDDWYTDVEYSHKYLKAMFNFLGIEDYQIVRAQGTAVLDPTEVLQNAYKEVEEAASRLANKYIFSLEE”, the entry is “not failed”; as for “MSKDEIKKPVVLIYCDTIEGTNIYLKKICEGLEEEGVPFQIQQVEKVEDSVEVLAQNASRNSNLGIGIGVLKNGDCALLQRRLPPNLPIQTLRGEKYDPNLYRNIGINAARLAKNLPLVFA”, “not failed”; as for “MGDEDLIELKFRLADGTDIGPSKYSQFMTVASLKEKIIAQWPKDKENAPKMINEVKLINGGKILENNKTLSEARSLITIGELPGIVTTMHVVLRPPLFEKKKEKLQNDPPRKSHCVCCIL”, “failed”.
In the case of “MTPGTGSALGLLAAAVDAKAVAEIGTGCGVSGIHLLHGMRPDGVLTTVDPEPEHQQFARHAFRAAGFASNRARFIPGRALDVLPRLADAGYDLVFCDGDRLEYLDYLAESLRLLRPGGLVAFEGVFGAGRTIDSGPQPTEVLRVRELLRAVRESQELVPSLLPVGDGLLCAVKR”, the protein production entry was “failed”.
As for “MHARDVMVSPVVTVGPNATVRQVAQILLERRISAVPVVDADNKVLGIVSEGDLLHRAESGTERSPSWWLRLLTGDAQLATDYVKSHSIKVQDVMTQEVATAAPETPLHEIAMLLEERQIKRVPIVNKEGQLVGIVSRANLLQTIASARPKLEISLPDSVIRKRFFEELRKQPWAHTFNVNATVQNGVVDIWGFAPSVAERTAIRVAAEAIPGVATVNDHLLETPAFVY”, the entry is “failed”; as for “SAKNAYTKLGTDDNAQLLDIRATADFRQVGSPNIKGLGKKAVSTVYNGEDKPGFLKKLSLKFKDPENTTLYILDKFDGNSELVAELVALNGFKSAYAIKDGAEGPRGWLNSSLPWIEPKKT”, “not failed”; as for “MATSMTDIKGFNMISIEQEKELGNKFAVEIEKQQQPVNDPEVQRYVDKVGKRLLSGARAVEFDYVFKVVKDDSVNAFAIPGGRVYVHTGLLKAADNETELAGVLAHEINHAVARHGTRQMTQEYGYSLVLSLVLGDNPNMLAQLAGQLFGKAGMMSYSREYENQADFLGVETMYKAGYNPNGLTSFFQKLNAMDGGTQSNVARFFSTHPLTSERIQRVQAEIAKLPPQRYLTDETEFKKIKGRLKLEHHHHHH”, “not failed”.
For “MNIVSQLSPVTLSPELIARFTAIVGDKHALTDPLELEAYITEERNLYRGHSPLVLRPGSTEEVVAICKLANEARVALVPQGGNTGLVGGQTPHNGEVVISLKRMDKIREIDTSSNTITVEAGAILQRVQEKAAEVDRLFPLSLGAQGSCTIGGNLSTNAGGTAALAYGLARDMALGVEVVLADGRVMNLLSKLKKDNTGYDLRDLFIGAEGTLGIITAATLKLFPKPRAVETAFVGLQSPDDALKLLGIAQGEAAGNLTSFELIAETPLDFSVRHANNRDPLEARYPWYVLIELSSPRDDARAALESILERGFEDGIVVDAAIANSVQQQQAFWKLREEISPAQKPEGGSIKHDISVPVAAVPQFIEQANAAVVALIPGARPVPFGHLGDGNIHYNVSQPVGADKAEFLARWHDVSQVVFEVVLRLGGSISAEHGIGVMKRDELAEVKDKTAIELMRSIKALLDPHGIMNPGKVV”, the protein production result is recorded as “not failed”.
With “MTGKGQGGSWVPGVVSATDRGNFHASPTTATVLDIIGRILRAPLSATDTEIETALAQVADACSADVAQVCRAGTTGPLEPIHSWVRDGHIVLNIQDLCKFCPGSDQTGPVMLRDLKDLPEGPARDRLAGMELRSLVAVPMLRHGVLAGRVLLGWQTASSDLRPEDLAALQSLAEAMHAAAERRESERLTTEAAAALQEDRLLLESILRTSTSAILAFDADARIVFANDEAAALLGTDANRLPGCTLEGVGCRLLSREGEPLPPEALPVARAIAEGQTLRDLHHVLMAADGRQRILSINAAPVAAGAATAVRVVATIDDVTGQVSADSALRTALAEAHQLAFFDPLTGLYNRRGIVEVLRDCLQTCAREKAFLSLLYIDLDGMRQVNGTRGHWLGDRVLQALGARLDNLRQDGGDLGRISADEFVLTCGETHPDAAGAVAAAEAEAQRILESLREPFVVDGLTLEVTASIGLAAISAEDSVEGLLKGVDLAVMAAKAAGGDRACAYRADMEQDMVGRVALAQELREAIRRDEFRIYFEPMVSLGETGLEIVGQEALIRWEHPQRGLLAPIAFIPFAEETGFIRDIDRWVLRAAAQELARWAEDPARRHLGVSINISSAQFLSEEFGQMVREVLDETGVDPTRIELEVTEGTLLSNLGLARTTMMDLRSLGISIALDDFGTGFSSLSYLRDLPVDVLKIDRSFLGGLSDSKANRTILEGIIGLASGLGVALVAEGVETPAQFAWLRAKGCRTFQGYLFGRPVDEAQTQLAPEVSALGGHGGDRAVSGQIKG”, the protein production entry is on record as “failed”.
Consider “NGSERGVLLSVIDRTEERHAKGLRRQVDHRFDKLVGTISEGVLLMDDTGVFRDGNEAAQNILGRSLDEIIGSRFDDDIWNGLREDGSPLPNVEFPFWRAYVEREPVQEEVMGVYPPDAPPRWIRVNAQPLFRSGQEAPYAVLVSFDDITDERLKEEALQTSRDLLSSVLSSSL”, for which the protein production result is reported as “failed”.
Regarding “MKPVFLDFEQPIAELTNKIDELRFVQDESAVDISDEIHRLQKKSNDLTKSIFSKLTPAQISQVSRHPQRPYTLDYIEALFTDFEELHGDRHFADDYAIVGGLARFNGQSVMVVGHQKGRDTKEKIRRNFGMPRPEGYRKALRLMKTAEKFGLPVMTFIDTPGAYPGIGAEERGQSEAIGKNLYELTRLRVPVLCTVIGEGGSGGALAVALGDYVNMLQYSTYSVISPEGCASILWKTAEKAADAAQALGITADRLQKLDLVDTVIKEPLGGAHRDFGQTMKNVKAVLEKQLHEAQSIPLADLLSRRFDRIMAYGKFSEQ”, the protein production entry is on record as “not failed”.
As for “MDAKEVSAHWESNAETWTMLSRAGHDRYRDTLNTPAFLAMLPPVAGLKGLDLGCGEGTNTRTVARLGASMTGLDIAPTFLRHARDAERRDPLGIDYVLGDGLTLPFADRSFDFVTAFMSMMDMVDQAAVLREVARVLKPGGFLQFSILHPCFVPPTRRNIRDAEGAPVAVEVADYFDESDGRVERWLFSSISAEQQAALTPFAVPRFHRTLSTWVAMIVGARLSIEAFGEPRASEEVAAAEPIVADTRVAPIFLHVLAKRPTTP”, the entry is “failed”; as for “MFIAIHSQSFFSPEMDMVASRDRRPPPATIRREPFQLIRIKAAGLAAEGVNAMTSVFTRSAVACAIALAAAAISQAGAQGLKKYESGTKEFWTNPPPDWFLGDETEAQKGLAPPAGPPTGSSDAELAAMIKKIKLPPGFKIEVYASGVLSARQMAWGDNGTLFVGSFGVGSVYAITDKDGKKQVKTILKGLKMPTGLAFRDGALYVVDIDKLIRYDNAEANLDNLGSGKVVYDDMPSYVAHGWKYLAADKDGWFYVPFGPPFNIGIPPTSVSQIRRVDPKTGNAEIVALGVRNSVGGDVDPRSGKYWFTENARDWISDDMPSDKLNMISKLGEHFGYPYCHQGDMPDPKFAMGHKCSEFTPPVLNLGAHVAPLGMKFYTGDQFPAEYKNNIFIAEHGSWNRHKYQGGLIKRVIADPDGKNAKQEDFATGWIEGDQGYLGRPADIVLAKDGSMLVADDWAGAIYRISYSK”, “failed”; as for “MLTTLAIGNYRSINHLVLPLSQLNLVTGANGSGKSNLYKALRLLAETAQGGVVEALAREGGLDSTWWAGPETSARMRRGEVPIQGQHPSEVRRLRLGFATEDLGFAITLGLPIPLPYPSAFMLDPEIKCEAIWGAGAYRPSSLLVERKNALVRAREGNRWAVLDQHADSGESFFNIVGRPRQAPEIGDLRAFINSWRFYDHFRIDRDAPCRQPQLGTRSPVLHHDGRNLASALQTIIEIGDVEDLEEALNDAFPGSRLEINAPPGGLFSVRLHQHGLLRPLEGAELSDGTLRYLLLMAALLTPRPPSLMVLNEPETSLHADLLPALARLIIRASRRSQVWVVSHSAPLINALAACDGCNVLELEKIQGQTQLRGVGLLDEPLWRWAD”, “failed”.
Regarding “MSPLHRFSRTEILIGPEKLQRLRESTVAIFGLGGVGSFAAEALCRAGVGRLVLVDFDDICLTNVNRQLHAMDGTVGKAKVQVMAERLRLINPDADIVPHKDFYEAGNSDFLLSGGYNYVVDAIDHITSKLHLIRSCRERELRIISSMGAANKLDPTKIRVADISKTSVCGLARVVRKQLRRQGIKSGVTVVYSTEEPREQAIADAGCRSNCICPNKEEQRFSCEHRRNILGSISFIPSIFGLTMAGVVVNDLAKD”, the protein production entry is “failed”.
